Test results taken from patent US20220135701A1 (Genentech, published 2022).

B1: Rbt18G7 (antibody, V domains shown)
VH: QSLEESGGRLVTPGTPLTLTCTVSGIDLSSYALGWVRQAPGKGLEYIGIISSTGTTYYATWAKGRFTISKTSSTTVDLKITGPTTEDTATYFCARGAYAGYVAFGPYYFHIWGPGTLVTISL
VL: DIVMTQTPASVEAAVGGTVTIKCQASQSISNFLAWYQQKPGQPPKVLIYAASHLASGVPSRFKGSGSGTQFTLTISDLECADAATYYCQSYFYSSTSIYNAFGGGTEVVVR
notes: Recombinant rabbit monoclonal antibody, Expi293, protein A purified
B2: Rbt11G11 (antibody, V domains shown)
VH: QELVESGGGLVQAGESLKLSCKASGIDFSSYGISWVRQAPGKGLEWIAYIYPGFGITNYAHSVKGRFTISSDNAQNTVFLQMPSLTASDTATYFCARDLDYTGGVVGYAYVTYYFTLWGPGTLVTVSS
VL: DPVLTQTPSSVEAAVGGTVTIKCQASESISSRLAWYQQKPGQPPKLLIYSASTLASGVSSRFKGSGSGTEFTLTISDLECADAATYYCQTYYGGSTTGWYVFGGGTEVVVK
notes: as for B1

Columns and labels:
Test in all cases: SPR BIAcore T200, Ab captured, 25C
MuMER (E23-S496) = target: T1, MuMER (E23-S496) (mouse, UniProt Q60805 23-496)
T1 construct: range 23-496; also called mouse MerTK extracellular domain
T1 sequence (looked up): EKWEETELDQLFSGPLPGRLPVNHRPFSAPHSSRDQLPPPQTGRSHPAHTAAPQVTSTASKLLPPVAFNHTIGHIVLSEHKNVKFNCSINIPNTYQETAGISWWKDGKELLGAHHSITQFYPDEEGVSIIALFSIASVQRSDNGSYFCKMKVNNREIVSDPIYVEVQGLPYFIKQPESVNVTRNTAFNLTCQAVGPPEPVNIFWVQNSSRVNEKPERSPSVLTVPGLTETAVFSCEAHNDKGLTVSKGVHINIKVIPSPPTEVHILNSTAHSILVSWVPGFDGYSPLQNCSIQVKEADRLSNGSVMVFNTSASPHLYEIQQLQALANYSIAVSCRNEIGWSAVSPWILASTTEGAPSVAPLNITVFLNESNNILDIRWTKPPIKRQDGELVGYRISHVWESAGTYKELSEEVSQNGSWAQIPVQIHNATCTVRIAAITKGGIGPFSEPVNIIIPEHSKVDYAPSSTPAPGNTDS
Protocol: (§1) Binding affinity determinations were obtained using Surface Plasmon Resonance (SRP) measurements from a BIAcore™-T200 instrument. Briefly, each rabbit antibody was captured to achieve approximately 100 RU (Response Units). Then, 3-fold serial dilutions of the various MerTK domains (0.4 nM to 100 nM) diluted in HBS-EP buffer (0.01M HEPES pH 7.4, 0.15M NaCl, 3 mM EDTA and 0.05% v/v surfactant P20) was injected into the BIAcore™-T200 instrument at 25° C. or 37° C. with a flow rate of 30 μl/min. Association rates (kₒₙ) and dissociation rates (koff) were calculated using a simple one-to-one Langmuir binding model (BIAcore T200 evaluation software version 2.0). The equilibrium dissociation constant (KD) was calculated as the ratio koff/kₒₙ.
(§2) Antibody epitope determination was assessed by BIAcore analysis for rabbit antibodies binding against both the human and mouse MerTK extracellular domain (HuMER R26-A499 and MuMER E23-S496), Ig1&2 domain, Ig1-only domain, and Ig2-only domain (TABLE 18). Human MerTK and its domains are shown in light gray, while mouse MerTK and its domains are shown in dark gray.

HuMER.Ig1 (G76-G195) = target: T2, HuMER.Ig1 (G76-G195) (human, UniProt Q12866 76-195)
T2 construct: also called human MerTK Ig-like 1 domain
T2 sequence: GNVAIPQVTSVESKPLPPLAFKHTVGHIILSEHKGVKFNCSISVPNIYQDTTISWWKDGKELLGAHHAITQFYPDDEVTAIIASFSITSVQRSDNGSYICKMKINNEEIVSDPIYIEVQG
Protocol: as §1, §2

HuMER (R26-A499) = target: T3, HuMER (R26-A499) (human, UniProt Q12866 26-499)
T3 construct: Extracellular domain with both Ig-like and both fibronectin-like domains; also called human MerTK extracellular domain
T3 sequence: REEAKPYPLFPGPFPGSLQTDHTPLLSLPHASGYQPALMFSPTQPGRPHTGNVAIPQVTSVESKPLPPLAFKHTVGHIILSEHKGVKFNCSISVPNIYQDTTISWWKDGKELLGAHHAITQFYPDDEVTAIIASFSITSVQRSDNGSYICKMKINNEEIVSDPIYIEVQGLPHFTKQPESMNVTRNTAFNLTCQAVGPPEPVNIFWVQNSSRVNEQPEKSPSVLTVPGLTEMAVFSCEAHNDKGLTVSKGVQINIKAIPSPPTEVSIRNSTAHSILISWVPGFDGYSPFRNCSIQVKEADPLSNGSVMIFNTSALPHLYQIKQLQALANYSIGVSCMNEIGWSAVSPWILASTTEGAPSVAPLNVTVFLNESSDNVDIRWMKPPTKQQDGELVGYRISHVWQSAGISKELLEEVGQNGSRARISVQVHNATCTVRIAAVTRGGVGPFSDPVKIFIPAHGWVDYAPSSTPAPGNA
Protocol: as §1, §2

HuMER.Ig1&2 (G76-P284) = target: T4, HuMER.Ig1&2 (G76-P284) (human, UniProt Q12866 76-284)
T4 construct: also called human MerTK Ig-like 1&2 domains
T4 sequence: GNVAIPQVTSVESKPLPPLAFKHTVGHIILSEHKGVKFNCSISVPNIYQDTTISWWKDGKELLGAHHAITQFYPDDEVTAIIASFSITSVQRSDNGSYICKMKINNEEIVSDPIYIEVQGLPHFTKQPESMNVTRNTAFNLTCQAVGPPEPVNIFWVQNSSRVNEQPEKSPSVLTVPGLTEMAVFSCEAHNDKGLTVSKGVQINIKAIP
Protocol: as §1, §2

MuMER.Ig1 (A70-G190) = target: T5, MuMER.Ig1 (A70-G190) (mouse, UniProt Q60805 70-190)
T5 construct: range 70-190; also called mouse MerTK Ig-like 1 domain
T5 sequence (looked up): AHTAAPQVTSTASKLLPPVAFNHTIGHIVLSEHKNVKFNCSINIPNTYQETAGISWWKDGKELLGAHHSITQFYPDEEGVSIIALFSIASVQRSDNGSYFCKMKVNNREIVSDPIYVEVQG
Protocol: as §1, §2

MuMER.Ig1&2 (A70-P279) = target: T6, MuMER.Ig1&2 (A70-P279) (mouse, UniProt Q60805 70-279)
T6 construct: range 70-279; also called mouse MerTK Ig-like 1&2 domains
T6 sequence (looked up): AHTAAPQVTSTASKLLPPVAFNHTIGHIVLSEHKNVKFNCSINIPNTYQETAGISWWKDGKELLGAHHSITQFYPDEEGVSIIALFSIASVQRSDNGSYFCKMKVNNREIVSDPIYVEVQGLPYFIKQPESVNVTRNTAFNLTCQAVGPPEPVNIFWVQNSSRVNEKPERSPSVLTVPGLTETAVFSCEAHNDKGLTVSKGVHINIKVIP
Protocol: as §1, §2

cynomolgus monkey MerTK = target: T7, cynomolgus monkey MerTK (cynomolgus monkey, UniProt A0A2K5V1H9 32-505)
T7 construct: Soluble analyte in SPR; also called Cyno MerTK
T7 sequence: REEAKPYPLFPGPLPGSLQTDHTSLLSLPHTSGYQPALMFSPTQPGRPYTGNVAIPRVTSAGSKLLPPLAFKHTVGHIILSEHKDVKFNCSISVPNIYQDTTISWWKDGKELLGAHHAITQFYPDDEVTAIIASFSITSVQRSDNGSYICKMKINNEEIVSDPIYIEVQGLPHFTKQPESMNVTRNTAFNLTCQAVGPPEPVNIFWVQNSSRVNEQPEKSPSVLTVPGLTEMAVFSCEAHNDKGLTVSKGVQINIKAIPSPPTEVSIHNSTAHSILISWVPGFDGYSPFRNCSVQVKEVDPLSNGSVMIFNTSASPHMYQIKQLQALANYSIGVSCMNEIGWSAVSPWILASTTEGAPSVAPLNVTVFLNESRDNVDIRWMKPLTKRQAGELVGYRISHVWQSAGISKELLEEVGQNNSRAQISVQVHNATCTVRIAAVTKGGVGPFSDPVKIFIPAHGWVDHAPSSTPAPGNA
Protocol: as §1, with “All binding affinity” for “Binding affinity”, “Resonance (SPR)” for “Resonance (SRP)”, “rabbit or humanized” for “rabbit”, “of MerTK from” for “of the”, “various species” for “various MerTK domains”

mouse MerTK = target: T8, mouse MerTK (mouse, UniProt Q60805 23-496)
T8 construct: also called MuMER
T8 sequence (looked up): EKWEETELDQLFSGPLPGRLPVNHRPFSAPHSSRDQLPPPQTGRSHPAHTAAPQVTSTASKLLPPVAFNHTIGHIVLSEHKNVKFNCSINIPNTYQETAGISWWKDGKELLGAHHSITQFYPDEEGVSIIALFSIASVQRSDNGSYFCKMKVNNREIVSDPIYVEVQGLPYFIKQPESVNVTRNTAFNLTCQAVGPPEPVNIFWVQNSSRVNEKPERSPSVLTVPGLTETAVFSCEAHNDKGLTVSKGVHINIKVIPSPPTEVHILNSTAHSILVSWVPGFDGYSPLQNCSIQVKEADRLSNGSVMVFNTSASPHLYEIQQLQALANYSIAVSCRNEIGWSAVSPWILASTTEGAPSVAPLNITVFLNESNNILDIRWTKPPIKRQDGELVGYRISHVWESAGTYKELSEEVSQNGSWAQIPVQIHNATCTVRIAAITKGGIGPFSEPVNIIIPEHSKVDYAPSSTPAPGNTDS
Protocol: as §1, with “All binding affinity” for “Binding affinity”, “Resonance (SPR)” for “Resonance (SRP)”, “rabbit or humanized” for “rabbit”, “of MerTK from” for “of the”, “various species” for “various MerTK domains”

human MerTK = target: T9, human MerTK (human, UniProt Q12866 26-499)
T9 construct: also called HuMER
T9 sequence: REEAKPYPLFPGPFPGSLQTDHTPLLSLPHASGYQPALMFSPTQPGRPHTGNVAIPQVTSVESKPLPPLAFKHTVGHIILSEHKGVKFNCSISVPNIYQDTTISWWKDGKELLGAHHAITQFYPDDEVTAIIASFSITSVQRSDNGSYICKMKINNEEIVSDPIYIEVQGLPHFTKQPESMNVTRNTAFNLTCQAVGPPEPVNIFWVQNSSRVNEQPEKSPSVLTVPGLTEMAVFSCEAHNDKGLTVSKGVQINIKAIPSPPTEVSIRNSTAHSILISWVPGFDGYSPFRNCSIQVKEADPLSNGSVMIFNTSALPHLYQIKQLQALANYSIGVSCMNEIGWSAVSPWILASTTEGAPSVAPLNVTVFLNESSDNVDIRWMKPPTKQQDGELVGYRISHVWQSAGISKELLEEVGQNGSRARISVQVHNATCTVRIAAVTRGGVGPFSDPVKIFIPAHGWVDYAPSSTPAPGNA
Protocol: as §1, with “All binding affinity” for “Binding affinity”, “Resonance (SPR)” for “Resonance (SRP)”, “rabbit or humanized” for “rabbit”, “of MerTK from” for “of the”, “various species” for “various MerTK domains”

Binder	Kd (MuMER (E23-S496)) [nM]	Kd (HuMER.Ig1 (G76-G195)) [nM]	Kd (HuMER (R26-A499)) [nM]	Kd (HuMER.Ig1&2 (G76-P284)) [nM]	Kd (MuMER.Ig1 (A70-G190)) [nM]	Kd (MuMER.Ig1&2 (A70-P279)) [nM]	Kd (cynomolgus monkey MerTK) [nM]	Kd (mouse MerTK) [nM]	Kd (human MerTK) [nM]
B1	1.7	0.5	2.3	21	0.2	1.9	4.3	1.7	2.3
B2	4.1	39.8	31.3	–	–	3.4	14.3	4.1	31.3
